Experimental data taken from paper doi:10.1101/2023.09.12.557426 (bioRxiv, 2023).

What was measured:
[1] = target: His14-NEDD8 tagged APD of xtNup98(715-866) (Xenopus tropicalis, UniProt A0A1B8XZT4); test: pull-down
[2] = target: T1, Xenopus Nup98 from egg extract (Xenopus laevis, endogenous in egg …, UniProt A0A8J1MFV7); test: pull-down
[3] = target: T2, human Nup98 of HeLa cells (human (endogenous in HeLa), UniProt P52948); test: pull-down
xlNup93(168-820) = xlNup93(168-820) (Xenopus laevis, UniProt Q7ZX96); test: cryo-EM structure
[4] = target: Xenopus Nup93, target protein of the BLI measurement (Xenopus, UniProt Q7ZX96); test: BLI
[5] = target: Xenopus Nup93 from egg extract (Xenopus laevis (endogenous in egg …, UniProt Q7ZX96)); test: pull-down
[6] = target: human Nup93 from HeLa lysate (human (endogenous in HeLa), UniProt Q8N1F7); test: pull-down
[7] = target: T1, Xenopus Nup98 from egg extract; test: immunostaining of cells or tissue
[8] = target: T2, human Nup98 of HeLa cells; test: immunostaining of cells or tissue
[9] = target: hNup35(173-248, the RRM domain) (human, UniProt Q8NFH5); test: crystal structure
[10] = target: human Nup35 in NPCs of HeLa cells (Homo sapiens (HeLa), UniProt Q8NFH5); test: immunostaining of cells or tissue
[11] = target: Xenopus Nup35 from egg extract, in newly assembled NPCs (Xenopus laevis, UniProt I1VEB0); test: immunostaining of cells or tissue
crystal structure = target: the molecule itself; test: crystal structure

T2 sequence (P52948 1-880): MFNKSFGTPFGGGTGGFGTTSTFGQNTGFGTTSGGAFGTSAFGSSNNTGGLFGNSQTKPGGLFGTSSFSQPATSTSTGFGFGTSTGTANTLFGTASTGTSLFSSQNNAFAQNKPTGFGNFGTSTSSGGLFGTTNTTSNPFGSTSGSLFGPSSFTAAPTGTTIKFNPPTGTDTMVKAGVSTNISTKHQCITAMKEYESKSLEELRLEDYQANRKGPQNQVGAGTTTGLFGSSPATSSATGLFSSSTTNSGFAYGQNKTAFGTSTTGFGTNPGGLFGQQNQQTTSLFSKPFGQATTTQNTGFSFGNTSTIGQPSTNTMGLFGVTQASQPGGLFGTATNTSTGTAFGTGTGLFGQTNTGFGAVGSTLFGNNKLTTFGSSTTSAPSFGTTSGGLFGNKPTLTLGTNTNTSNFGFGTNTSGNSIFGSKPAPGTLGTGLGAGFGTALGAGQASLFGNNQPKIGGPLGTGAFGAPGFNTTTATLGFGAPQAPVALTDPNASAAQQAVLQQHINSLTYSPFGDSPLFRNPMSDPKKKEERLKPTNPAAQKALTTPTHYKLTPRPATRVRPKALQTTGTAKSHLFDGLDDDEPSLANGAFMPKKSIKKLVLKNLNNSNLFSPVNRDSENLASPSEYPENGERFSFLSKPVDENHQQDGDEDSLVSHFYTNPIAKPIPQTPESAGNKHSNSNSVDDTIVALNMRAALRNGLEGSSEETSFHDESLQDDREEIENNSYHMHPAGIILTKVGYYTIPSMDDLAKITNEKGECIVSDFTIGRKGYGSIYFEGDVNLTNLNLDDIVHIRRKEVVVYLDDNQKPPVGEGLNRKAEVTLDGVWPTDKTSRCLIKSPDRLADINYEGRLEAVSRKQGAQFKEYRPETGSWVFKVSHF
Chain of xlNup93(168-820) (Q7ZX96 168-820): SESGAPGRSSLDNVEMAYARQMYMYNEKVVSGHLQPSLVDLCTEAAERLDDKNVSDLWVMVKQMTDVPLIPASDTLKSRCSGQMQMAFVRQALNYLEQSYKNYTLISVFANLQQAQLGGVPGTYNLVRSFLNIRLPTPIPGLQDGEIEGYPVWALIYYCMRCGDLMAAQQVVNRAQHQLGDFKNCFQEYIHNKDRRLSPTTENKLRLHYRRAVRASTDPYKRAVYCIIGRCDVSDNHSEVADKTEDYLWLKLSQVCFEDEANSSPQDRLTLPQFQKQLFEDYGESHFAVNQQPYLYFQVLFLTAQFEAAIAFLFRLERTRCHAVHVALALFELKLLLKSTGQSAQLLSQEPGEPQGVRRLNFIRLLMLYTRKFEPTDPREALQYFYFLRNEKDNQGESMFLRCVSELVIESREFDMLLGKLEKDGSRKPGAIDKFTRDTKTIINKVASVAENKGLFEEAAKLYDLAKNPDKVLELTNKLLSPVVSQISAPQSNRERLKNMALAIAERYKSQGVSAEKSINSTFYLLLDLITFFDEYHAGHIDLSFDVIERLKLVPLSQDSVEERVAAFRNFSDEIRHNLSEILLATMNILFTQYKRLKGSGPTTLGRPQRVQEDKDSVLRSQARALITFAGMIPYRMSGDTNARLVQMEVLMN
Chain of Xenopus Nup93, target protein of the BLI measurement (Q7ZX96 whole entry): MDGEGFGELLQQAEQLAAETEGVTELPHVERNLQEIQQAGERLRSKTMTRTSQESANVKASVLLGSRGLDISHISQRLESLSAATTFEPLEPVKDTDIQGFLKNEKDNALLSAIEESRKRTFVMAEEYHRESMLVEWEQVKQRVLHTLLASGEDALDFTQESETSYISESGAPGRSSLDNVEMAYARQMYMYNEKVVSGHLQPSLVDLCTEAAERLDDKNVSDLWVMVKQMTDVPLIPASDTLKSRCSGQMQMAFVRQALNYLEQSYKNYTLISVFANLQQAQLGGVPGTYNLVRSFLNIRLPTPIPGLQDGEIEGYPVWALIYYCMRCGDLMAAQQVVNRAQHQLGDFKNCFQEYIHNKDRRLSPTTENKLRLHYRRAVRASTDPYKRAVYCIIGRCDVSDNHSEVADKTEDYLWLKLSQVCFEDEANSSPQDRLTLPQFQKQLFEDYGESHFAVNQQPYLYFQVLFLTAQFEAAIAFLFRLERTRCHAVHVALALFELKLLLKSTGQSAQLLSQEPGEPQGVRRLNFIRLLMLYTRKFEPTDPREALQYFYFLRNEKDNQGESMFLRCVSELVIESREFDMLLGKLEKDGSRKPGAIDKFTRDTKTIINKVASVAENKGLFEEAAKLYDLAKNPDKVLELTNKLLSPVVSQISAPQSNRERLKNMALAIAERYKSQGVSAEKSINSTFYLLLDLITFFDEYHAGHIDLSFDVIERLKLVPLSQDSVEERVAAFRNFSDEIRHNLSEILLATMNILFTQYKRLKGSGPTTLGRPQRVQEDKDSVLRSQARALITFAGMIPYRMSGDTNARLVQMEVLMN
Chain of Xenopus Nup93 from egg extract (Xenopus laevis (Q7ZX96 whole entry): as above
Chain of human Nup35 in NPCs of HeLa cells (Q8NFH5 whole entry): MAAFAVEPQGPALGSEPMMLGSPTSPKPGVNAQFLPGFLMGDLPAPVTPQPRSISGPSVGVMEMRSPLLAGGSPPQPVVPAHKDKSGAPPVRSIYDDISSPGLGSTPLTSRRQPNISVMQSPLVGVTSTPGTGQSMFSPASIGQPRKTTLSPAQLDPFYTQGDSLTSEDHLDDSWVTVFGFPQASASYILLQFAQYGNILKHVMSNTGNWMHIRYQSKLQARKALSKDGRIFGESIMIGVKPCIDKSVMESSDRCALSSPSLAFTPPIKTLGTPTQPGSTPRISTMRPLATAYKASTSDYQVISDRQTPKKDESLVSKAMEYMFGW
Chain of human Nup93 from HeLa lysate (Q8N1F7 whole entry): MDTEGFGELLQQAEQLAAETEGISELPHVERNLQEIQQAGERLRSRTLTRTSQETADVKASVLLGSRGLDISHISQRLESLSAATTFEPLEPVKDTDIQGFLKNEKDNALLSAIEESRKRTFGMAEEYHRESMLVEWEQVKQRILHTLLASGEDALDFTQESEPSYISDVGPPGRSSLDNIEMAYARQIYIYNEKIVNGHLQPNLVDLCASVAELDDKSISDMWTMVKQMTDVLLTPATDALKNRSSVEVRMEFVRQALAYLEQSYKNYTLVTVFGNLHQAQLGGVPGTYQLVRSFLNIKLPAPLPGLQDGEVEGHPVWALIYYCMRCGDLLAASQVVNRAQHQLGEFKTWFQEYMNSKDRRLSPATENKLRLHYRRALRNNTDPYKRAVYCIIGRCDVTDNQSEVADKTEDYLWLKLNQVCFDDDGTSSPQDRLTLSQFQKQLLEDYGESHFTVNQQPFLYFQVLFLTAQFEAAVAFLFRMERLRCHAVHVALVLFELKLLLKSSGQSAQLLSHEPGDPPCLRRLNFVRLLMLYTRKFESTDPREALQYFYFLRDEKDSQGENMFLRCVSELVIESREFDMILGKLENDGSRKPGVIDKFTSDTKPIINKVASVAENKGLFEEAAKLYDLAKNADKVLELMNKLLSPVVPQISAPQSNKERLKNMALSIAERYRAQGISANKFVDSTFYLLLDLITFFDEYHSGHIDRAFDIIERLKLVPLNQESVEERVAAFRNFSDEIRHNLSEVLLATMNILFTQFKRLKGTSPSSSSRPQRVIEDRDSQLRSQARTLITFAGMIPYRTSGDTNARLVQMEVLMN

B1: xhNup98-Nb2i (VHH)
VHH: QVQLVESGGGLAKPGGSLRLSCVATGTFRSMEDVGWYRQAPGKDRELVAEITTLGKVTYADSVKGRFTISRDDAKNAVYLQMSDLKSEDTAVYYCNIEADQTKGIGYVVYPYWGQGTRVTVSS
binding result [1]: binds

B2: (biotin)-Avi-SUMO^Eu1-xhNup98-Nb2i (VHH)
VHH: B1 VHH
binding result [2]: binds
binding result [3]: binds

B3: xNup93-Nb2t (VHH)
VHH: DVQLVESGGGLVQPGGSLRLSCVASGFTFSRVGMGWVRQAPGKGLEWVSDINASGGTGYADSVKGRFAISRDNAKNTLYLQMNRLKPEDTAVYYCAKMMDTAMIEAGIIKPAGQGTQVTVSS
binding result (xlNup93(168-820)): binds

B4: xhNup93-Nb4i, biotinylated at two ectopic cysteines (VHH)
VHH: QVQLVESGGGVVQTGDSLMLSCTVSGHTIDNWAMGWFRQTPRKQREFVAAIDKRGTGAIYGNSVKGRFTVSRDNAKNMVYLRMNSLKPEDTAVYFCAVDQLNAGLGDVSYDYDYWGQGTQVTVSS
binding result [4]: binds

B5: xhNup93-Nb4i (VHH)
VHH: B4 VHH
binding result (xlNup93(168-820)): binds

B6: (biotin)-Avi-SUMO^Eu1-xhNup93-Nb4i (VHH)
VHH: B4 VHH
binding result [5]: binds
binding result [6]: binds

B7: xNup98-Nb1t (VHH)
VHH: QVQLVESGGGPVEAGGSLRLSCAASGRSFSNSVMAWFRQAPGKEREFLSVLNWSSGRTSIADSVKGRFTMSRDPAKITVYLQMNGLKPEDTAVYYCAASNRGSLYTLDNQNRYEDWGQGTQVTVSS
binding result [1]: binds

B8: xNup98-Nb1t, fluorophore-labelled (VHH)
VHH: B7 VHH
binding result [7]: binds
binding result [8]: no binding (tested: 35 nM)

B9: xhNup35-Nb1t (VHH)
VHH: QVQLVESGGGLVQAGGSLRLSCVGTGNISSAYTMAWYRQAAGKEREVVAGILNGGSTHYADSVKGRFTISRDNAKNTVYLQMNSLQPEDTGVYCCHVVIESTRFVYDHYWGQGTRVTVSS
binding result [9]: binds

B10: xhNup35-Nb1t, fluorophore-labelled (VHH)
VHH: B9 VHH
binding result [10]: binds
binding result [11]: binds

B11: hNup35(173-248, the RRM domain) (domain or fragment)
chain: DSWVTVFGFPQASASYILLQFAQYGNILKHVMSNTGNWMHIRYQSKLQARKALSKDGRIFGESIMIGVKPCIDKSV
binding result (crystal structure): binds
